Results published in paper PMC10127594.

target: T1, Gac (Borrelia burgdorferi sensu stricto B31) (UniProt O51396); assay: competition; details: EMSA: 50 mM Tris-HCl (pH not stated), 25 mM KCl, 10% glycerol, 0.01% Tween 20, 100 nM DTT, 1 mM PMSF; 15 min, room temperature; 10 nM probe, 25 nM Gac
T1 sequence: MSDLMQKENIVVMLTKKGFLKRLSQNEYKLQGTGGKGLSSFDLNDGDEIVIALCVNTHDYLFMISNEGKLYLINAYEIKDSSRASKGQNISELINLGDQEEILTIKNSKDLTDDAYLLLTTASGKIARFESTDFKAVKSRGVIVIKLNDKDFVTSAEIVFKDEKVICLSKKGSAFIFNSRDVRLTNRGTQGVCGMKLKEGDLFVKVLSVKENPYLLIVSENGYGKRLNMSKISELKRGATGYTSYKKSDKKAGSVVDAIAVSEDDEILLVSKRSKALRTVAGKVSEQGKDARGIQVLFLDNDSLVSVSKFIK

Question: “AACAGGCAAAAGGATTTGCCAAAGTCAGAAATT (double strand) [flaB competitor]” was tested. Which binding signal (fold reduction) did it give?
Answer: Its binding signal (fold reduction) is under 1.3.

Question: Which binding signal (fold reduction) does the source give for B31 ospC operator/promoter here?
Answer: The binding signal (fold reduction) was 2.6.

Question: With “GTATTAAGTTATATTAATATAAAAGGAGAATATATT (double strand) [ospAB competitor]” as the substance, how does the binding signal (fold reduction) read?
Answer: Its binding signal (fold reduction) is under 1.3.

Question: How did the binding signal (fold reduction) turn out when Ip89 ospC operator/promoter was run?
Answer: Its binding signal (fold reduction) is 2.

Question: Which binding signal (fold reduction) does the source give for empty pCR2.1 amplicon here?
Answer: The binding signal (fold reduction) was under 1.3.
